Reference: patent US20090022663A1 (published 2009)

Molecular target: T1, 161P2F10B variant 1 (human 161P2F10B), on the cell surface (human, UniProt O14638 1-875)
T1 construct: Cell surface pyrophosphatase/phosphodiesterase; also called 161P2F10B v.1; CD203c
Test: flow cytometry on cells or ELISA on immobilized 161P2F10B

B1: H16-1.80 (antibody, V domains shown)
VH: QVQLQESGPGLVKPSETLSLTCTVSGGSISSYYWSWIRQPPGKGLEWIGYVYFSGSTNYNPSLKSRVTISVDTSKNQFSLKLSSVTAADTAVYYCARATRDYYYYGMDVWGQGTTVTVSS
VL: DIQMTQSPSSLSASVGDRVTITCRTSHDISNYLNWYQQKPGKAPKLLIYAASSLQSGVPSRFSGSRSGTDFTLTISSLQPEDFATYYCQQTYSTLFTFGPGTKVDIKR
notes: also called Ha16-1.80; HA16-1.80
  binding result: binds
